Measured values published in patent US20140072553A1 (MORPHOTEK, published 2014).

biological target: tetanus toxoid (UniProt P04958 2-1315); assay: hybridoma screening ELISA
Sequence (P04958 2-457 limits assumed, chain 1 of 2): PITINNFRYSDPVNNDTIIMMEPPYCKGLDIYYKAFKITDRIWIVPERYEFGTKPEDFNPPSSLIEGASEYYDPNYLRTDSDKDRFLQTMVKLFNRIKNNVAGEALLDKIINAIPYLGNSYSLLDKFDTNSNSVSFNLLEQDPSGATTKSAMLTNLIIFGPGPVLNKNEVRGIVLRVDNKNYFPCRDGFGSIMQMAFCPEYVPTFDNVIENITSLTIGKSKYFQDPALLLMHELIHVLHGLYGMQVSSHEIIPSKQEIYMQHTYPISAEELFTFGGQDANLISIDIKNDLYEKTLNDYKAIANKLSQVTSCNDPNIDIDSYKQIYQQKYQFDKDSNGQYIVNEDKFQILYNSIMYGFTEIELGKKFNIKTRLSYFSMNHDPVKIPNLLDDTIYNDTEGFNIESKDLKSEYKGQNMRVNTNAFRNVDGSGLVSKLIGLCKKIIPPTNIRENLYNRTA
Sequence (P04958 458-1315 limits assumed, chain 2 of 2): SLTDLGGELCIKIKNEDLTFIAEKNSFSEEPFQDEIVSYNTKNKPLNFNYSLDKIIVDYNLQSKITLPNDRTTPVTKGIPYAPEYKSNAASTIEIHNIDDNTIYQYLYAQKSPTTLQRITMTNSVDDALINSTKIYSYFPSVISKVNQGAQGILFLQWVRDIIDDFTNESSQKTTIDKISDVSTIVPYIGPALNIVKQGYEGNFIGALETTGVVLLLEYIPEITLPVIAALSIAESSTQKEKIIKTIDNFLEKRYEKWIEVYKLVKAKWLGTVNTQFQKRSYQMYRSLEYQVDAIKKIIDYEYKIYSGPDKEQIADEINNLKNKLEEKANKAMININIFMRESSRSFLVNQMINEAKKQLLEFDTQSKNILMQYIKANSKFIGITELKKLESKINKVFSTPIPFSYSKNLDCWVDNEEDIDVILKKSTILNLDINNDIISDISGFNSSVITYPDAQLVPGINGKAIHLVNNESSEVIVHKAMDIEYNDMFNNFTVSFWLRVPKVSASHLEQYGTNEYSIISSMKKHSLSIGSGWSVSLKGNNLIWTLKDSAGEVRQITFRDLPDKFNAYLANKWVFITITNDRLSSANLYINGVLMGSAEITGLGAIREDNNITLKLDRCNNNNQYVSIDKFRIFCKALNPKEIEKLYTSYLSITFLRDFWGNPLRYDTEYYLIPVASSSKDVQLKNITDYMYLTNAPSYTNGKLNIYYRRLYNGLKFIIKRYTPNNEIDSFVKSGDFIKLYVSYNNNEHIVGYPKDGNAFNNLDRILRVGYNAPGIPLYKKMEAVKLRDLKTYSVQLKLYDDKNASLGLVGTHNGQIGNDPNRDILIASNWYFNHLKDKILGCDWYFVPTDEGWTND

| Binder | binding result |
| --- | --- |
| human anti-SEB monoclonal antibody F10 (antibody, V domains shown) VH: QVQLVQSGGGLVKPGGSLRLSCAASGFTFSSYSMNWVRQAPGKGLEWVSSISSSSSYIYYADSVKGRFTISRDNAKNSLYLQMNSLRAEDTAVYYCARGGVAGRTEIYYYYYGMDVWGQGTTVTVSS VL: not shown | no binding |
| human anti-SEB monoclonal antibody 79G9 (antibody, V domains shown) VH: EVQLEESGAGLLKPSETLSLTCAVYGGSFSGYYWSWIRQAPGKGLEWIGEIDHSGTTNYNPSLKSRVTISVETSKNQFSLRLSSVTAADSAVYYCASSGYCSHGLCPQEDWGQGTLVTVSS VL: DIELTQSPSFLSASVGDRVAITCRASQGISNYLAWYQQKPGKAPKLLIYAAFVLQSGVPSRFSGSGSGTEFTLTISNLQPEDFATYYCQQLNSYPRAFGPGTKVDIKR | no binding |
| human anti-SEB monoclonal antibody 100C9 (antibody, V domains shown) VH: EVQLVESGGGLVQPGGSLRLSCSASGFTFSSYWMSWVRQAPGKGLEWVANIIQDGSEKYYADSVKGRLTISRDNAKNSLYLQMNSLRVDDTAVYYCARGYEGCSATRCYLYYFDYWGPGTLVTVSS VL: SYVLTQPPSVSVSPGQTARITCSGDALPKQYTYWYQQKPGQAPVVVIYKDSERPSGIPERFSGSSSGTTVTVTISGVQAEDEADYYCQSADSSGTSLVFGGGTKLTVLG | no binding |
